Laboratory results: PMC6070508

Legend:
[1] = molecular target: 1:1 8D6 Fab/IgE-Fc complex; assay: SPR; sandwich: about 100 RU of His-tagged IgE-Fc captured on an 8D6 Fab surface, then a second 8D6 Fab injected at 30 uL/min; HBS-P
[2] = molecular target: His-tagged IgE-Fc (human); assay: as above
Sequence of His-tagged IgE-Fc (human) (P01854 other isoform, or with tags, fused parts or gaps): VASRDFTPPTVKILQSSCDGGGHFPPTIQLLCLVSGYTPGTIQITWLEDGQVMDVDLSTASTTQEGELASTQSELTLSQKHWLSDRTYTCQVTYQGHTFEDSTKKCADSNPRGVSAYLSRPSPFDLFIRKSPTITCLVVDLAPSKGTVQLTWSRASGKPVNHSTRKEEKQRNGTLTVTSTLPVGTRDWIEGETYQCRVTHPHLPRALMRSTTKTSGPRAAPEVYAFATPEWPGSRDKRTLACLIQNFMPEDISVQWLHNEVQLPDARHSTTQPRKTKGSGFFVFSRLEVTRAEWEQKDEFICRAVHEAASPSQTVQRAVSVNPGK

Kd [1]: 0.06 nM
koff [1]: 6e-05 s⁻¹
kon [1]: 1e+06 M⁻¹ s⁻¹
stoichiometry N [2]: 2
B1: 8D6 Fab (Fab, V domains shown)
VH: QVQLQQSGAELAKPGASVMLSCKASGYTFNGYWMHWVKQRPGQDLEWIGYINPTTGHTEYNQKFKDKATLTADESSNTAYIELSSLTSDDSAVYYCARQEYRHSWFAYWGQGTLVTVSA
VL: DIVLTQSPASLAVSLGQRATISCKASQSVDYDGDTYMNWYHQKPGQPPKLLIYAASNLDSGIPARFSGSGSGTDFTLNIHPVEEEDAATYYCQQTNEDPWTFGGGTKLEIK
